Results: the supplement of paper PMC12764529
± gives the half width of the 95% confidence interval.

Experiments:
[1] = folding stability dG unfold from trypsin proteolysis; higher = more stable
Procedure, shortened: (§1)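 Bayesian fitting of sequencing counts gave K50 for each design. Unfolding free energy followed by setting this against a sequence-predicted unfolded-state K50 and a shared folded-state K50, either per protease or with trypsin and chymotrypsin combined. The designs, under 80 residues and lacking cysteine, were digested in a PA-tagged cDNA display format at 11 threefold-diluted protease concentrations and without protease, and only those with AlphaFold2 dimer inter-PAE above 15 were kept.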

[2] = folding stability dG unfold from chymotrypsin proteolysis; higher = more stable
Procedure, shortened: as §1

[3] = folding stability dG unfold (combined trypsin and chymotrypsin); higher = more stable
Procedure, shortened: as §1

Sequence	folding stability dG unfold [1] [kJ/mol]	folding stability dG unfold [2] [kJ/mol]	folding stability dG unfold [3] [kJ/mol]
STTEVEVTPLPGNSTLVTTTTTTPEFDPANGTIRYTSETTTTTITYTPGTTEPTTTTTTTTTTTTIPATTSA [r9_140_JUSTAS]	2.67 ± 0.259	3.4 ± 0.502	3.41 ± 0.586
SAGGSAGGSAGGMNPVSKVTKHSGPNGQVTETTTYFDPASGKTTVTYTDLVTGTTSTISTSAGGSAGGSAGG [r11_1063_JUSTAS]	-2.42 ± 0.197	-4.29 ± 1.72	-3.44 ± 0.711
SAWIEIEKDPDGMFELEIPWPDGHPVKIHYNPDDGKPLHIMFPNGWHLQIWISPDGKIEIEDIHPIPPNSAG [r14_877_TrROS]	13 ± 1	13.1 ± 0.205	12.6 ± 0.544
SAGGKPGEKPRIRIQVKVRYPGNGRKQSITIEIVPDAIEQGLSASELADEIARKMGMPVKIEEIEILSAGGS [r16_554_TrROS]	7.836 ± 0.0628	7.079 ± 0.0544	7.51 ± 0.167
SAGGSAGGSAGGPTLELEITLPDGFKLRVTFDPEKGLRVELVEPVPAPPPKVEYRSLEDLSAGGSAGGSAGG [r11_188_TrROS_Hall]	2.31 ± 0.544	6.76 ± 0.46	5.73 ± 0.753
SAGGSAGGSAGDNYVMITHTIPFPPGEPLEIKIPPGAKIDDIDPERDPGNGTITVSIWFRSAGGSAGGSAGG [r11_701_TrROS]	2.05 ± 1	3.68 ± 0.711	3.05 ± 1.05
SAGGSAGGYRIRFKNGIEFKLPMTEGELKKMADNFPGFEVTEVEPVPPPPPPPEDLPPEQREQMSAGGSAGG [r6_881_TrROS]	-0.559 ± 1.51	0.62 ± 0.962	-0.291 ± 1.34
SAGGSAGGSAGFNIRIVNVEITGNKLTIYLPNGWVITIKFNKNGNINMKIEDIKPLPPGASAGGSAGGSAGG [r17_173_TrROS]	12.6 ± 0.669	16.7 ± 0.268	15.1 ± 0.586
SAGGSAGGSNPRYRIVLPISREQLEELGLTPEQVAEAIREAFPSLSPDTRFYFPEDGNLVVVGSAGGSAGGS [r12_50_TrMRF]	6.6 ± 0.1	4.83 ± 0.0502	5.85 ± 0.109
SAGGEGEILDKKEFTFPDNVKLEVYVFKVGDKYFVKVKTTITVPENPTKPKKPLKKITPEDIKKALEKSAGG [r13_760_TrMRF]	0.632 ± 1.38	7.85 ± 0.879	6.27 ± 2.09
SAGGSAGGSGYLSQERPVTIKLPNGEVVEVDGVVRESPESDVVTVEIPETGQTIEVPKANVVESAGGSAGGS [r12_772_JUSTAS]	3.81 ± 0.251	-0.146 ± 0.669	1.87 ± 0.418
SAGGSSMPLEVTEVKKIGDKIVITLRVPPSVGPLSLGLTIELKSKPVTITSTFDPSTTTATIEVGLSAGGSA [r2_261_JUSTAS]	12.1 ± 0.418	14.3 ± 0.753	13.6 ± 0.711
SAGGSAGGSAGGPKTVRIVEYDPETQRVVIELEDGSKVVIEVPPGMSVEELKGKTLTVEPSAGGSAGGSAGG [r7_296_TrROS_Hall]	7.48 ± 0.213	2.38 ± 0.418	4.77 ± 0.711
SAMILLIKIENKNDGKEFIIEITPNKITIYDKKTGKKYEITVDGNTITIKINGKTYKAKIKEVIPEEELSAG [r14_208_TrROS_Hall]	13.5 ± 0.837	16.2 ± 0.402	14.8 ± 2.05
SAGGSAGGSAGGMPVTLNVTVKTKDPDGVAATETVTLTFSSPEEALAAIKAAYPNSTIESAGGSAGGSAGGS [r10_1248_JUSTAS]	4.16 ± 0.238	5.55 ± 0.255	4.8 ± 0.502
SAGGSAGGPLRIEIEIKIEIFPFPDGWYLIRMTIKIKVYNPGEDGQPIAEYEITFYFIIPPGDFSAGGSAGG [r6_60_TrROS]	17.8 ± 0.711	25.3 ± 0.628	> 25.1
MSEEERKKAAEERSKPPPVEIKVEVEVVKNEDGEEYLRVRVTVVDPETGEVIEEREFVVRREDLEELLKALS [r1_415_TrROS_Hall]	15.5 ± 0.669	14.9 ± 0.628	14.4 ± 1.13
SSKIKEFIIKLPEKNKYYKIIVTPTEIYIYDENGKKIKKFSIPKNKKIKKIDIKIDKKKNKLIIKVYLEKSA [r9_939_TrMRF]	17.3 ± 0.962	19 ± 0.41	18.5 ± 0.879
SAGMTIILVGPNAKEAVEKVAEELRKRDVGPPVTVLVLEPGGKPVLRARVERRPPDPDRFVVTVEPVESAGG [r19_85_TrMRF]	2.88 ± 0.331	5.88 ± 0.46	5.31 ± 0.41
SAGGSAGGSPDVVVPATLTFPLDAVAKAEFYPDGTVKVTFPDNTVALAKVEGGVVTDVRLAPASAGGSAGGS [r12_749_TrMRF]	0.143 ± 0.13	0.2 ± 0.276	0.459 ± 0.397
STLEQILDAIESMPPGWVFRIKIHHPNGEPHEHRFNMTYDDIKAQLENMIDHHPGQPIKIKIEFMPPEDFSA [r9_37_TrROS]	12.4 ± 0.46	15.6 ± 0.322	14.2 ± 0.268

Sequence	folding stability dG unfold [1] [kJ/mol]	folding stability dG unfold [2] [kJ/mol]	folding stability dG unfold [3] [kJ/mol]
SAGGSSPLLLTSSPTPLTLPDGGTVTLTTTRVPGDNADVVTITTTPPGTGTTTVTTLPASTAAATLSAGGSA [r2_366_JUSTAS]	6.14 ± 0.142	2.52 ± 0.502	4.81 ± 0.285
SAGGLKEIAKQLGPGADKVEIEWEPQPHDDMEMYRWKIRVKNPNNGKKRKLEVSIMYDPNGNIRSIMISAGG [r13_358_TrROS]	7.74 ± 0.502	9.95 ± 0.322	9.78 ± 0.586
SAGGSAGPALEIAKALTELYGAEEVTILDVHPDGYVHLHVRAVDYDDGEPVERELDVIFPIAPDDGSAGGSA [r15_646_TrMRF]	0.685 ± 0.251	6.36 ± 0.155	4.92 ± 0.46
SAGGSAGGIKAPDGQEYHIILFPITIPMEQKVERPMPDGDPRPETRTVSIKIPIWFAIPPGQKISAGGSAGG [r6_526_TrROS]	4.75 ± 0.121	6.29 ± 0.502	5.38 ± 0.544
SMEITLLSTDPTPGGMTTALWETPNRKVTIFKPPSENYYIVTVEIPGTGKTKTLRFPKNVSPEEIVKKLGSA [r9_522_JUSTAS]	7.89 ± 0.142	6.47 ± 0.381	7.45 ± 0.31
SVYIPIPMGDPEGLKEMLDFIKNILEKNQENGYENVPIPIHMPNGGPFEFPIDPNSTLEEQLDQIEKFIESA [r9_127_TrROS]	6.53 ± 0.46	2.77 ± 0.326	4.82 ± 1
SAGGSAGGSAGGSMKIYKITVKKEDSELEFYVSDDVPAEVAANILKALYPDVEVKIEEGSAGGSAGGSAGGS [r4_155_TrMRF]	5.23 ± 0.201	4.62 ± 0.418	4.66 ± 0.628
SAGGSAGGSAGGSVIEVKDPNGKKYIIIKTPDPNVYPVTVIPPDGTTTVTPVSDYSKLLSSAGGSAGGSAGG [r7_769_JUSTAS]	-3.74 ± 1.67	-1.94 ± 2.34	-2.21 ± 1.76
SAGGSAGGPKEYYRVTVYVRNKDGEWEKVAEIEVPGMTEEELKELLAKLGLPPGAEVEIKIEKVSAGGSAGG [r6_88_TrROS_Hall]	21 ± 2.05	20.6 ± 0.628	20.9 ± 0.879
SMKPVKITEVTEDTITVTVTVYDKETNRLVKVTAEITFDKETKKLTIKVKVEVLPPLSEEQRKALEEALKSA [r9_1038_TrROS_Hall]	8.26 ± 0.318	12.3 ± 0.293	11.5 ± 0.711
SGMIKVSVEEKELKDGTKLYTITVEHPDPEVAKETAEKIVKEKFPKNYKVETKLTESGKVIAPVIVPKKKSA [r9_646_JUSTAS]	1.59 ± 0.377	4.59 ± 0.628	3.76 ± 0.837
SAGGMKTIEITIKTEDGYTIKIKITEKDGKLYIEIEIEDPNMSEEQREKIKKEIEELAKKLNIKVEIPSAGG [r13_774_TrROS_Hall]	14.6 ± 1.3	11.7 ± 1.13	13.1 ± 1.76
SAMKTYTLPNATITVETLPGDNTIVVTVTDPESGKTTTTTVSLDDPSLTIENIIARIEEQIKAGKPVSLSAG [r14_157_JUSTAS]	9.74 ± 0.418	9.05 ± 0.226	9.04 ± 0.586
SAGGSAGGSAKAKIKKVEVEKEGDKLRVTAEIELEDGYVLKVSFEFKDDEIKMEIEIVPLKDSAGGSAGGSA [r18_79_TrROS_Hall]	12.6 ± 1.34	14.2 ± 1.21	13.5 ± 2.01
SAGGKIPKNAKILEVEFDPETGYIRIKVEFYDKNGKLIKKAEITIPILPVPPLSPEDIEKLLKALASSAGGS [r16_697_TrMRF]	13.2 ± 0.502	16.1 ± 0.711	15 ± 0.711
SAGGSAGGQEEEAEALAKEVEAPAREALPGTEVTVTVTVTRREDGSLEVDVTIEGDFALPAALLSAGGSAGG [r6_999_JUSTAS]	3.4 ± 0.272	2.66 ± 0.28	3.28 ± 1
SMTLTETKVLTTETLSGEEFAKRSGVPVEEIRKSGVKYNVTVTPVEVTYYDPETGKTYKRTSTTVTITPESA [r9_382_JUSTAS]	1.48 ± 0.347	3.52 ± 0.46	2.87 ± 0.305
SPGMEPIREWELKLPDPDGEDKDLEVEMYRMPEGNYYVDISIPNGKKIPFPMPPDEPITPDDIRNFIKKFSA [r9_616_TrROS]	0.556 ± 1.09	2.57 ± 0.962	1.65 ± 1.17
SAGTVRLEVTVVIKLTKEQIENLPKDVKLEDGAEIEEKDDYLVIKRTIELPPPVVTDKDGKKLPLEELSAGG [r19_148_TrROS_Hall]	0.962 ± 0.711	5.84 ± 0.364	3.92 ± 1.34
SAGGSAGGMTPEELAEQKAEELREKLLAEGRPVSLKITKVTYEVDPKTGTVKVTSDIEIVYGPGSAGGSAGG [r6_454_JUSTAS]	4.37 ± 0.335	1.81 ± 1.21	4.12 ± 1
SAGMKIEIEAEYDPESGTVTLHIKEEPEPGEPVEVKFPIKFLKDKVEIEAETEEPLDPEEILKKIKEELSAG [r5_478_TrMRF]	-0.674 ± 0.586	3.5 ± 0.502	2.15 ± 0.837
